Measurements from patent US12624112 (MABWELL SHANGHAI BIOSCIENCE, dated 2026).

Experiments:
ST2 on KU812 cells [1] = target: T1, ST2 on KU812 cells (UniProt Q01638 19-556, limits assumed); assay: cell-based or functional assay
T1 sequence (looked up): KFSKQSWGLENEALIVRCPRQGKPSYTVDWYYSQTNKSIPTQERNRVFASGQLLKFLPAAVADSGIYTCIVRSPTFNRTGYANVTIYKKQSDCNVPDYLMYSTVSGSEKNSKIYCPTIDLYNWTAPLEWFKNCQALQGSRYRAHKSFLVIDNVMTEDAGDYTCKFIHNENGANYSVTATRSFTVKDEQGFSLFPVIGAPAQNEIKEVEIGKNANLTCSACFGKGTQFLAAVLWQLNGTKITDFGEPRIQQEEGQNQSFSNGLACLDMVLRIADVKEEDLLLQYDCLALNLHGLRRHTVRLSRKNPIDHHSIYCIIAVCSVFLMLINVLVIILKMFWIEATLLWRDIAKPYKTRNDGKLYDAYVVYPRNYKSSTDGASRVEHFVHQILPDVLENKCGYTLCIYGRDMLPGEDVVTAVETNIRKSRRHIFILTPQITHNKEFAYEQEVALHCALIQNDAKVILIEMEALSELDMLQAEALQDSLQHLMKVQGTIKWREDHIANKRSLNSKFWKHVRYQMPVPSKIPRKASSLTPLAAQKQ

Cyno ST2-fc [2] = target: T2, Cyno ST2-fc (cyno; human, UniProt A0A2K5UDB8 19-331); assay: ELISA, coated cyno ST2-fc
T2 construct: also called cyno ST2 fused with a human IgG1 Fc tag at the C-terminus
T2 sequence: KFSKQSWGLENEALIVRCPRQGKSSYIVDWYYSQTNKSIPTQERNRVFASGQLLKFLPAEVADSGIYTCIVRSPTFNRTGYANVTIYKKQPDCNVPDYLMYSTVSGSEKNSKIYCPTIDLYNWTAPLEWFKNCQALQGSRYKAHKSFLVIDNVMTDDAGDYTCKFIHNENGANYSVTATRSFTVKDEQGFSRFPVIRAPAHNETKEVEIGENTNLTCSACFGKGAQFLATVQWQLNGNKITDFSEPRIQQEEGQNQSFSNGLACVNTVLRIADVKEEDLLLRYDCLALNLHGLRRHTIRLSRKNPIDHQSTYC
Procedure: Cyno ST2-fc was diluted with a coating buffer to 1 μg/mL, added into 96-well plates at 50 μL/well and coated overnight at 4° C. Next day, the coated plates were taken, washed with PB ST for 3 times, and then incubated using a blocking buffer at room temperature for 1 hr. Subsequently, the plates were washed with PBST for 3 times again. Starting at 1000 ng/mL, each murine antibody was diluted 3-fold to obtain serial dilutions of 8 concentrations in total which were then added into the 96-well plates at 50 μL/well. The plates were incubated at room temperature for 1 hr, washed with PB ST for 3 times; and then a goat anti-mouse secondary antibody (1:10000) was added at 50 μL/well into the 96-well plates which subsequently were incubated at room temperature for 1 hr. The 96-well plates were washed with PB ST for 3 times, and TMB was added at 50 μL/well to develop color in dark for 10 min. Afterwards, 2 M sulfuric acid was added to stop reaction; and GD values at 450 nm were read by a microplate reader. It can be seen that the murine antibodies can bind to cyno ST2, with a binding trendency consistent with the binding to human ST2.

ST2 on KU812 cells [3] = target: T1, ST2 on KU812 cells; assay: cell-based or functional assay; remark: listed apart in the source
Cyno ST2-fc [4] = target: T2, Cyno ST2-fc; assay: SPR Biacore X100, antibody on CM5, cyno ST2-fc analyte
Procedure: The experiment on the interactions between the anti-human ST2 antibodies and cyno ST2-fc was performed using Biacore X100, and was carried out at 25° C. in HBS-EP (1×) buffer (pH 7.4). Each antibody was immobilized on the surface of CM5 chip using an amino coupling kit. Following the antibody immobilization, a solution of cyno ST2-fc (2-fold gradient dilution from a starting concentration of 8 nM, to obtain 6 concentrations in total; the starting concentration might be increased if the signal of some sample was too low) was injected. Association was monitored for 2 min and dissociation for 10 min, and the sensor surface was regenerated by injecting a solution of glycine at pH 1.5.

Human ST2-his [5] = target: T3, Human ST2-his (human, UniProt Q01638 19-328); assay: SPR Biacore X100, antibody on protein A, ST2-his analyte
T3 construct: Expressed in CHO-K1; also called human ST2 fused with a 6-histidine tag at the C-terminus
T3 sequence: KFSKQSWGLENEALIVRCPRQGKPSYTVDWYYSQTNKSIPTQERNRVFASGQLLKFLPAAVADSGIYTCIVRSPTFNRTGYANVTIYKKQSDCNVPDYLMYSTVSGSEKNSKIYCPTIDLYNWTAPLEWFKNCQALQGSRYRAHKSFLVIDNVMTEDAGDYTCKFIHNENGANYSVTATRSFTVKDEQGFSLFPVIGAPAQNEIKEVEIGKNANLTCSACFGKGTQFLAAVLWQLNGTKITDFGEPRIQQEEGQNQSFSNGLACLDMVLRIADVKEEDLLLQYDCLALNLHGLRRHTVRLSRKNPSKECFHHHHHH
Procedure: On the basis of the results of the quantitative screenings of murine antibodies above together, 19 murine antibodies were selected for affinity determination and in vitro pharmacological study. The experiment on the interaction between the anti-human ST2 antibodies and human ST2-his was performed using Biacore X100, and was carried out at 25° C. in HBS-EP (1×) buffer (pH 7.4).
Each anti-human ST2 antibody was diluted to 10 nM and captured on the surface of a protein A chip (for a capture time of 60 s). […] Association was monitored for 4 min and dissociation for 10 min, and the sensor surface was regenerated by injecting a solution of glycine at pH 2.0. Data generated for kinetics and affinity assay were analyzed using BIAevaluation software.

Human ST2-fc (human) = Human ST2-fc (human) (UniProt Q01638); assay: competition ELISA, coated ST2-fc, competitor IL33-his
Human ST2-his [6] = target: T3, Human ST2-his; assay: ELISA, coated human ST2-his
Procedure: Human ST2-his was diluted with a coating buffer to 1 μg/mL, added into plates at 50 μL/well, and coated overnight at 4° C. Next day, the coated plates were taken, washed with PBST for 3 times, and then incubated using a blocking buffer at room temperature for 1 hr. Subsequently, the plates were washed with PBST for 3 times again. Starting at 100 ng/mL, each murine antibody was diluted 3-fold to obtain serial dilutions of 8 concentrations in total which were then added into the 96-well plates at 50 μL/well. The plates were incubated at room temperature for 1 hr, washed with PBST for 3 times; and then a goat anti-mouse secondary antibody (1:10000) was added at 50 μL/well into the 96-well plates which subsequently were incubated at room temperature for 1 hr. The 96-well plates were washed with PBST for 3 times, and TMVB was added at 50 μL/well to develop color in dark for 10 min. Afterwards, 2 M sulfuric acid was added to stop reaction; and GD values at 450 nm were read by a micro-plate reader.

[7] = target: T4, ST2 on the effector cells (KU812, KU812/NF-κB-1#, HUVEC, HMC-1) (human, UniProt Q01638 19-556); assay: cell-based or functional assay
T4 sequence (looked up): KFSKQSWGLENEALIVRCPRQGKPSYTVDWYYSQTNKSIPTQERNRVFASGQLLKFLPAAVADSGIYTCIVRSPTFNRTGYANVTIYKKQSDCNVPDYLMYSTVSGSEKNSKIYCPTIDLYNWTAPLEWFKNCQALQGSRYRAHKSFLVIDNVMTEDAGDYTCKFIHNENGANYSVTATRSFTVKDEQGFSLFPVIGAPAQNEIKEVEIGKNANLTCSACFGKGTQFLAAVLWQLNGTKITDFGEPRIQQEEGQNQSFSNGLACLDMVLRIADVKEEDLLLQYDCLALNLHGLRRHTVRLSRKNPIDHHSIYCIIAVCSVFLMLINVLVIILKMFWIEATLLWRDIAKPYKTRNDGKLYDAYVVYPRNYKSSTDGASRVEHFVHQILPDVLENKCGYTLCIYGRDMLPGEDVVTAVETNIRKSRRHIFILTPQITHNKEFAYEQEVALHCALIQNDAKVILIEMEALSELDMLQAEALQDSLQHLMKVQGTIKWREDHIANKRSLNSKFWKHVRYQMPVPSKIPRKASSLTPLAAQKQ

Human ST2-his [8] = target: T5, Human ST2-his (human, UniProt Q01638-2 19-328, limits assumed); assay: SPR Biacore X100, antibody captured on protein A chip, human ST2-his injected, pH 7.4
T5 construct: Expressed in CHO-K1; The printed range starts at Met1; also called human ST2 fused with a 6-histidine tag at the C-terminus
T5 sequence: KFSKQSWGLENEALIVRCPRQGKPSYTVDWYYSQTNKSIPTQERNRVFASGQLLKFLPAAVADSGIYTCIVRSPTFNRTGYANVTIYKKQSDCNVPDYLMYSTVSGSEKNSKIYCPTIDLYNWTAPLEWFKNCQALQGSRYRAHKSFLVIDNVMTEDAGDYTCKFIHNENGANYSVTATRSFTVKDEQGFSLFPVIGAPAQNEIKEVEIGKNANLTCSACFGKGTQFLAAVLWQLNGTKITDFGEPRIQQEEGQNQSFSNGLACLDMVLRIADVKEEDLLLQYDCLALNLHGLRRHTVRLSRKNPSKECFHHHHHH
Procedure: The experiment on the interaction between the anti-human ST2 antibodies and human ST2-his was performed using Biacore X100.
Each anti-human ST2 antibody was diluted to 2 µg/mL and captured on the surface of a protein A chip for a capture time of 60 s. Following the antibody capture, a solution of human ST2-his (2-fold gradient dilution from a starting concentration of 20 nM, to obtain 6 concentrations in total) was injected. Association was monitored for 180 s and dissociation was monitored for 700 s, and the sensor surface was regenerated by injecting a solution of glycine at pH 2.0. Kinetic data were analyzed using a simple 1:1 binding model.

[9] = target: T4, ST2 on the effector cells (KU812, …); assay: cell-based or functional assay; remark: listed apart in the source

Binder	Maximum inhibition rate (%), KU812 IL-5 production (ST2 on KU812 cells [1])	Kd (Cyno ST2-fc [4])	koff (Cyno ST2-fc [4])	kon (Cyno ST2-fc [4])	Kd (Human ST2-his [5])	koff (Human ST2-his [5])	kon (Human ST2-his [5])	IC50 (Human ST2-fc (human))	Maximum inhibition rate (Human ST2-fc (human))	Relative activity compared with CNTO7160 (Human ST2-fc (human))	IC50, inhibition of activation of KU812-NF-κB reporter gene by IL33 [9]	Maximum inhibition rate, KU812-NF-κB reporter gene [9]	Relative activity compared with CNTO7160, KU812-NF-κB reporter gene [9]	also measured
5886-156H+L (antibody, V domains shown, murine antibody) VH: DVQLQQSGPGLVKPSQSLSLTCTVTGYSITSDYAWNWIRQFPGNKLEWMGYIDYSGSTTYNPSLKSRFSITRDTSKNQFFLQLNSVTTEDTATYYCASTVIDSMDYWGQGTSVTVSS VL: DIVLTQSPASLAVSLGQRATISCRASKSVSTSGHSYMHWYQQKPGQPPKLLIYLASNLESGVPARFSGSGSGTDFTLNINPMEEEDAATYYCQHSREFPFTFGSGTKLEIK	84.2%	206 pM	0.000747 s⁻¹	3.62e+06 M⁻¹ s⁻¹	461 pM	0.00109 s⁻¹	2.37e+06 M⁻¹ s⁻¹	1.14 µg/mL						Relative activity (%), KU812 IL-5 production (ST2 on KU812 cells [1]): 304%; EC50 (Cyno ST2-fc [2]): 0.0203 µg/mL; Relative activity (%) (Cyno ST2-fc [2]): 66.4%; IC50, activation of KU812-NF-κB reporter gene by IL33 (ST2 on KU812 cells [3]): 0.00804 µg/mL; Relative activity (%) compared with CNTO7160, KU812-NF-κB reporter (ST2 on KU812 cells [3]): 127%; Relative activity (%) compared with CNTO7160 (Human ST2-fc (human)): 76.6%; EC50 (Human ST2-his [6]): 0.0161 µg/mL; Relative activity (%) compared with CNTO7160 (Human ST2-his [6]): 131%
Control antibody CNTO7160 (antibody, human IgG4 S228P, kappa, V domains shown) VH: EVQLLESGGGLVQPGGSLRLSCAASGFTFSIYDMIWVRQAPGKGLEWVSSIRGEGGGTYYADSVKGRFTISRDNSKNTLYLQMNSLRAEDTAVYYCARDPWSTEGSFFVLDYWGQGTLVTVSS VL: EIVLTQSPATLSLSPGERATLSCRASQSVDDDLAWYQQKPGQAPRLLIYDASNRATGIPARFSGSGSGTDFTLTISSLEPEDFAVYYCQQYITAPLTFGQGTKVEIKR	89%	136 pM	0.000221 s⁻¹	1.63e+06 M⁻¹ s⁻¹	698 pM	0.000539 s⁻¹	827000 M⁻¹ s⁻¹							
5886-156-H1L1 (antibody, human IgG4 S228P, kappa, V domains shown, Humanized antibody) VH: QVQLQESGPGLVKPSQTLSLTCTVSGYSITSDYAWNWIRQPPGKGLEWIGYIDYSGSTTYNPSLKSRVTISRDTSKNQFSLKLSSVTAADTAVYYCASTVIDSMDYWGQGTLVTVSS VL: DIVLTQSPASLAVSPGQRATITCRASKSVSTSGHSYMHWYQQKPGQPPKLLIYLASNLESGVPARFSGSGSGTDFTLTINPVEANDAANYYCQHSREFPFTFGQGTKVEIKR								1 µg/mL	88%	125%				IC50, inhibition of KU812-IL5 production promoted by IL-33 (human IL33-his) [7]: 0.0289 µg/mL; Maximum inhibition rate, KU812-IL5 production by IL-33 [7]: 95%; Relative activity compared with CNTO7160, KU812-IL5 production by IL-33 [7]: 222%; Kd (Human ST2-his [8]): 261 pM; koff (Human ST2-his [8]): 0.000377 s⁻¹; kon (Human ST2-his [8]): 1.45e+06 M⁻¹ s⁻¹
5888-153-H1L1 (antibody, human IgG4 S228P, kappa, V domains shown) VH: QVQLVQSGAEVKKPGASVKVSCKASGYTFTDYELHWVRQAPGQGLEWMGTIDPETGDTVYNQKFKARVTMTADKSTSTAYMELSSLRSEDTAVYYCTRAFYNDYDDGFAYWGQGTLVTVSS VL: EIVMTQSPATLSLSPGERATLSCSVSSSVSYMHWYQQKPGQAPRRLIYDTSKLASGIPARFSGSGSGTDYTLTISSLEPEDAAVYYCQQWNSSPLTFGGGTKVEIKR								0.624 µg/mL	93.8%	183%	0.0124 µg/mL	91.4%	1620%	
5888-153-H1L2 (antibody, human IgG4 S228P, kappa, V domains shown) VH: QVQLVQSGAEVKKPGASVKVSCKASGYTFTDYELHWVRQAPGQGLEWMGTIDPETGDTVYNQKFKARVTMTADKSTSTAYMELSSLRSEDTAVYYCTRAFYNDYDDGFAYWGQGTLVTVSS VL: EIVMTQSPATLSLSPGERATLSCSVSSSVSYMHWYQQKPGQAPRRLIYDTSKLASGIPARFSGSGSGTDYTLTISSLEPEDAAVYYCQQWNTSPLTFGGGTKVEIKR								0.852 µg/mL	94%	134%	0.0441 µg/mL	85%	454%	
